Target: Recombinant human SEMA3A Fc chimera (R&D Systems) (human) (UniProt Q14563)
Test: plate saturation binding; trap coated, SEMA3A-FC titrated, HRP anti-human IgG chemiluminescence, non-linear fit

| Kd [nM] | Molecule |
| --- | --- |
| 0.8 | Trap G (Human, "full" extracellular domain NRP1-His) (from UniProt O14786 22-856) (receptor) |
| 1.05 | Trap O (Human, NRP1-His-Δc-short) (from UniProt O14786 22-583) (receptor) |
| 4.44 | Trap Z (Human, "full" extracellular domain NRP1-His, VEGF165-Low, E319K/D320K mutations) (receptor) FRNDKCGDTIKIESPGYLTSPGYPHSYHPSEKCEWLIQAPDPYQRIMINFNPHFDLEDRDCKYDYVEVFDGENENGHFRGKFCGKIAPPPVVSSGPFLFIKFVSDYETHGAGFSIRYELFKRGPECSQNYTTPSGVIKSPGFPEKYPNSLECTYIVFAPKMSEIILEFESFDLEPDSNPPGGMFCRYDRLEIWDGFPDVGPHIGRYCGQKTPGRIRSSSGILSMVFYTDSAIAKEGFSANYSVLQSSVSEDFKCMEALGMESGEIHSDQITASSQYSTNWSAERSRLNYPENGWTPGKKSYREWIQVDLGLLRFVTAVGTQGAISKETKKKYYVKTYKIDVSSNGEDWITIKEGNKPVLFQGNTNPTDVVVAVFPKPLITRFVRIKPATWETGISMRFEVYGCKITDYPCSGMLGMVSGLISDSQITSSNQGDRNWMPENIRLVTSRSGWALPPAPHSYINEWLQIDLGEEKIVRGIIIQGGKHRENKVFMRKFKIGYSNNGSDWKMIMDDSKRKAKSFEGNNNYDTPELRTFPALSTRFIRIYPERATHGGLGLRMELLGCEVEAPTAGPTTPNGNLVDECDDDQANCHSGTGDDFQLTGGTTVLATEKPTVIDSTIQSEFPTYGFNCEFGWGSHKTFCHWEHDNHVQLKWSVLTSKTGPIQDHTGDGNFIYSQADENQKGKVARLVSPVVYSQNSAHCMTFWYHMSGSHVGTLRVKLRYQKPEEYDQLVWMAIGHQGDHWKEGRVLLHKSLKLYQVIFEGEIGKGNLGGIAVDDISINNHISQEDCAKPADLDKKNPEIKIDETGSTPGYEGEGEGDKNISRKPGNVLKTLDPRSGSKENLYFQGHHHHHH |
| 4 | Trap AC (Human, "full" extracellular domain NRP1-His-VEGF-low, D320K mutation) (receptor) FRNDKCGDTIKIESPGYLTSPGYPHSYHPSEKCEWLIQAPDPYQRIMINFNPHFDLEDRDCKYDYVEVFDGENENGHFRGKFCGKIAPPPVVSSGPFLFIKFVSDYETHGAGFSIRYELFKRGPECSQNYTTPSGVIKSPGFPEKYPNSLECTYIVFAPKMSEIILEFESFDLEPDSNPPGGMFCRYDRLEIWDGFPDVGPHIGRYCGQKTPGRIRSSSGILSMVFYTDSAIAKEGFSANYSVLQSSVSEDFKCMEALGMESGEIHSDQITASSQYSTNWSAERSRLNYPENGWTPGEKSYREWIQVDLGLLRFVTAVGTQGAISKETKKKYYVKTYKIDVSSNGEDWITIKEGNKPVLFQGNTNPTDVVVAVFPKPLITRFVRIKPATWETGISMRFEVYGCKITDYPCSGMLGMVSGLISDSQITSSNQGDRNWMPENIRLVTSRSGWALPPAPHSYINEWLQIDLGEEKIVRGIIIQGGKHRENKVFMRKFKIGYSNNGSDWKMIMDDSKRKAKSFEGNNNYDTPELRTFPALSTRFIRIYPERATHGGLGLRMELLGCEVEAPTAGPTTPNGNLVDECDDDQANCHSGTGDDFQLTGGTTVLATEKPTVIDSTIQSEFPTYGFNCEFGWGSHKTFCHWEHDNHVQLKWSVLTSKTGPIQDHTGDGNFIYSQADENQKGKVARLVSPVVYSQNSAHCMTFWYHMSGSHVGTLRVKLRYQKPEEYDQLVWMAIGHQGDHWKEGRVLLHKSLKLYQVIFEGEIGKGNLGGIAVDDISINNHISQEDCAKPADLDKKNPEIKIDETGSTPGYEGEGEGDKNISRKPGNVLKTLDPRSGSKENLYFQGHHHHHH |
| 6.15 | Trap R (Human, NRP1-His-Δc-VEGF low) (receptor) FRNDKCGDTIKIESPGYLTSPGYPHSYHPSEKCEWLIQAPDPYQRIMINFNPHFDLEDRDCKYDYVEVFDGENENGHFRGKFCGKIAPPPVVSSGPFLFIKFVSDYETHGAGFSIRYELFKRGPECSQNYTTPSGVIKSPGFPEKYPNSLECTYIVFAPKMSEIILEFESFDLEPDSNPPGGMFCRYDRLEIWDGFPDVGPHIGRYCGQKTPGRIRSSSGILSMVFYTDSAIAKEGFSANYSVLQSSVSEDFKCMEALGMESGEIHSDQITASSQASTNWSAERSRLNYPENGWTPGEDSYREWIQVDLGLLRFVTAVGTQGAISKETKKKYYVKTYKIDVSSNGEDWITIKEGNKPVLFQGNTNPTDVVVAVFPKPLITRFVRIKPATWETGISMRFEVYGCKITDYPCSGMLGMVSGLISDSQITSSNQGDRNWMPENIRLVTSRSGWALPPAPHSYINEWLQIDLGEEKIVRGIIIQGGKHRENKVFMRKFKIGYSNNGSDWKMIMDDSKRKAKSFEGNNNYDTPELRTFPALSTRFIRIYPERATHGGLGLRMELLGCEVEAPTAGPTTPNGNLVDECDDDQANCHSGTGDDFQLTGGTTVLATEKPTVIDSTIQSEFPTYGFNCEFGWGSHKTFCHWEHDNHVQLKWSVLTSKTGPIQDHTGDGNFIYSQADENQKGKVARLVSPVVYSQNSAHCMTFWYHMSGSHVGTLRVKLRYQKPEEYDQLVWMAIGHQGDHWKEGRVLLHKSLKLYQVIFEGEIGKGNLGGIAVDDISINNHISQEDCAKPADLDKKNPEIKIDETGSTPGYEGEGEGDKNISRKPGNVLKTLDPRSGSKENLYFQGHHHHHH |
| 0.95 | Trap M (Human, NRP1-His-Δb2c-short) (receptor) FRNDKCGDTIKIESPGYLTSPGYPHSYHPSEKCEWLIQAPDPYQRIMINFNPHFDLEDRDCKYDYVEVFDGENENGHFRGKFCGKIAPPPVVSSGPFLFIKFVSDYETHGAGFSIRYELFKRGPECSQNYTTPSGVIKSPGFPEKYPNSLECTYIVFAPKMSEIILEFESFDLEPDSNPPGGMFCRYDRLEIWDGFPDVGPHIGRYCGQKTPGRIRSSSGILSMVFYTDSAIAKEGFSANYSVLQSSVSEDFKCMEALGMESGEIHSDQITASSQYSTNWSAERSRLNYPENGWTPGEDSYREWIQVDLGLLRFVTAVGTQGAISKETKKKYYVKTYKIDVSSNGEDWITIKEGNKPVLFQGNTNPTDVVVAVFPKPLITRFVRIKPATWETGISMRFEVYGCRSGSKENLYFQGHHHHHH |

From US20230265199A1
